Results reported in patent publication US20260250363A1 (AP BIOSCIENCES, published 2026).
Like-named read-outs stand apart in the source and are kept apart here.

Legend:
[1] = target: SARS-CoV-2 Spike Trimer, His Tag (BA.5/Omicron) (MALS verified) (AcroBiosystems, SPN-C522e) (SARS-CoV-2, UniProt P0DTC2 16-1213); experiment: BLI (ForteBio), mAb on AHC sensor, spike in solution
[2] = target: T1, SARS-CoV-2 Spike Protein, wild type (R&D, Cat. #10549-CV) (SARS-CoV-2, UniProt P0DTC2 16-1211); experiment: as above
[3] = target: T2, SARS-CoV-2 AY.1 Spike Protein (R&D, Cat. #10922-CV) (SARS-CoV-2, UniProt P0DTC2 16-1211); experiment: as above
[4] = target: T3, SARS-CoV-2 B.1.1.529 Spike Protein (Omicron) (SARS-CoV-2, UniProt P0DTC2 16-1211); experiment: as above
[5] = target: Recombinant SARS-CoV-2 BA.2 Spike (GCN4-IZ) His Protein, CF (R&D, 11109-CV) (SARS-CoV-2, UniProt P0DTC2 16-1211); experiment: as above
[6] = target: T4, SARS-CoV-2 C.37 Spike His Protein (R&D, Cat. #10887-CV) (SARS-CoV-2, UniProt P0DTC2 16-1211); experiment: as above
[7] = target: SARS-CoV-2 Spike Trimer, His Tag (BA.4/Omicron) (MALS verified) (AcroBiosystems, SPN-C5229) (SARS-CoV-2, UniProt P0DTC2 16-1213); experiment: as above
[8] = target: T5, SARS-CoV-2 B.1.617.2 Spike Protein (R&D, Cat. #10878-CV) (SARS-CoV-2, UniProt P0DTC2 16-1211); experiment: as above
[9] = target: T4, SARS-CoV-2 C.37 Spike His Protein (R&D, …); experiment: direct ELISA on coated spike
[10] = target: T5, SARS-CoV-2 B.1.617.2 Spike Protein …; experiment: direct ELISA on coated spike
[11] = target: T1, SARS-CoV-2 Spike Protein, wild type …; experiment: direct ELISA on coated spike
[12] = target: T1, SARS-CoV-2 Spike Protein, wild type …
[13] = target: T5, SARS-CoV-2 B.1.617.2 Spike Protein …; experiment: competition ELISA: blocks biotin-ACE2 binding to coated spike
[14] = target: T3, SARS-CoV-2 B.1.1.529 Spike Protein …; experiment: direct ELISA on coated spike
[15] = target: T2, SARS-CoV-2 AY.1 Spike Protein (R&D, …); experiment: competition ELISA: blocks biotin-ACE2 binding to coated spike
[16] = target: T4, SARS-CoV-2 C.37 Spike His Protein (R&D, …)
[17] = target: T2, SARS-CoV-2 AY.1 Spike Protein (R&D, …); experiment: direct ELISA on coated spike
[18] = target: T3, SARS-CoV-2 B.1.1.529 Spike Protein …; experiment: competition ELISA: blocks biotin-ACE2 binding to coated spike
[19] = target: T6, SARS-CoV-2 C.37 Spike His Protein (R&D, Cat. #10887-CV) (SARS-CoV-2, UniProt P0DTC2 16-1211); experiment: BLI (ForteBio), mAb on AHC sensor, spike in solution; remark: listed apart in the source
[20] = target: T7, SARS-CoV-2 AY.1 Spike Protein (R&D, Cat. #10922-CV) (SARS-CoV-2, UniProt P0DTC2 16-1211); experiment: as above; remark: listed apart in the source
[21] = target: T8, SARS-CoV-2 Spike Protein, wild type (R&D, Cat. #10549-CV) (SARS-CoV-2, UniProt P0DTC2 16-1211); experiment: as above; remark: listed apart in the source
[22] = target: T6, SARS-CoV-2 C.37 Spike His Protein (R&D, …); experiment: direct ELISA on coated spike; remark: listed apart in the source
[23] = target: T8, SARS-CoV-2 Spike Protein, wild type …; experiment: direct ELISA on coated spike; remark: listed apart in the source
[24] = target: T6, SARS-CoV-2 C.37 Spike His Protein (R&D, …); experiment: competition ELISA: blocks biotin-ACE2 binding to coated spike
[25] = target: T8, SARS-CoV-2 Spike Protein, wild type …; experiment: as above
[26] = target: T7, SARS-CoV-2 AY.1 Spike Protein (R&D, …); experiment: as above; remark: listed apart in the source
[27] = target: T8, SARS-CoV-2 Spike Protein, wild type …; experiment: as above; remark: listed apart in the source
[28] = target: T6, SARS-CoV-2 C.37 Spike His Protein (R&D, …); experiment: as above; remark: listed apart in the source
[29] = target: T7, SARS-CoV-2 AY.1 Spike Protein (R&D, …); experiment: direct ELISA on coated spike; remark: listed apart in the source
[30] = target: T7, SARS-CoV-2 AY.1 Spike Protein (R&D, …); experiment: competition ELISA: blocks biotin-ACE2 binding to coated spike; remark: listed apart in the source
[31] = target: T3, SARS-CoV-2 B.1.1.529 Spike Protein …; experiment: direct ELISA on coated spike, single dose (axis label 30nm)

B1: anti-SARS-CoV-2 antibody clone R4-1a-10 (antibody, V domains shown)
VH: QVQLQQWGAGLLKPSETLSLTCAVYGGSFSGNYWSWIRQPPGKGLEWIGEINHSGSTNYNPSLKSRVTISVDTSKNQFSLKLSSVTAADTAVYYCARGLLDYWGQGTLVTVSS
VL: QSVLTQPSSVSAAPWQRVTISCSGSDSNIGNNPVNWYQHVPGKAPTLLIYYDNFLASKISDRFSGSKSGTSASLAISGLQSDDEADYYCASWDDSLNGVVFGGGTKLTVLR
Kd [1]: 7.86 nM
Kd [2]: 1.87 nM
Kd [3]: 1.79 nM
Kd [4]: 0.571 nM
Kd [5]: 3.23 nM
Kd [6]: 1.01 nM
Kd [7]: 6.86 nM
Kd [8]: 2.34 nM
EC50 [9]: 1.99 nM
EC50 [10]: 0.0369 nM
EC50 [11]: 0.479 nM
IC50 [12]: 77 nM
IC50 [13]: 2.12 nM
EC50 [14]: 0.0806 nM
IC50 [15]: 0.738 nM
IC50 [16]: 73.8 nM
EC50 [17]: 0.0407 nM
IC50 [18]: 1.86 nM

B2: Imdevimab (antibody, V domains shown)
VH: QVQLVESGGGVVQPGRSLRLSCAASGFTFSNYAMYWVRQAPGKGLEWVAVISYDGSNKYYADSVKGRFTISRDNSKNTLYLQMNSLRTEDTAVYYCASGSDYGDYLLVYWGQGTLVTVSS
VL: QSALTQPASVSGSPGQSITISCTGTSSDVGGYNYVSWYQQHPGKAPKLMIYDVSKRPSGVSNRFSGSKSGNTASLTISGLQSEDEADYYCNSLTSISTWVFGGGTKLTVLG
Kd [19]: 0.563 nM
Kd [20]: 0.305 nM
Kd [21]: 2.32 nM
EC50 [22]: 0.0734 nM
EC50 [23]: 0.0681 nM
IC50 [24]: 3.25 nM
IC50 [25]: 4.85 nM
IC50 [26]: 1.18 nM
IC50 [27]: 4.82 nM
IC50 [28]: 3.77 nM
EC50 [29]: 0.0642 nM
IC50 [30]: 0.697 nM

B3: anti-SARS-CoV-2 antibody clone R3-1a-1 (antibody, V domains shown)
VH: QVQLVQSGAEVKKPGSSVKVSCKASGGTFSSYAISWVRQAPGQGLEWMGGIIPILGIANYAQKFQGRVTITADKSTSTAYMELSSLRSEDTAVYYCARDGGGSSGYHDYWGQGTLVTVSS
VL: NFMLTQPHSVSESPGKTVTISCTRSSGSIASKYVQWYQQRPGNSPTTVIYEDDQRPSGVPDRFSASIDSSANTASLTISGLKPEDEADYYCQSYDDNTAVFGGGTHLTVLG
Kd [1]: 12.5 nM
Kd [5]: 4.36 nM
Kd [7]: 10.3 nM
binding result [31]: no binding (tested: 30 nM (printed 30nm))
